Results on 22 molecules are retold here after patent publication US20230381281A1, “PHARMACEUTICAL COMPOSITION COMPRISING GLUCAGON/GLP-1/GIP TRIPLE AGONIST OR LONG-ACTING CONJUGATE THEREOF FOR PREVENTING OR TREATING LUPUS-RELATED DISEASES” (HANMI PHARM. CO., LTD., priority 2020, published 2023).

Holding throughout (experiment): cell-based or functional assay
Experiment [1] concerns the target T1, human GIP receptor (human, UniProt P48546 22-466).
T1 sequence (looked up): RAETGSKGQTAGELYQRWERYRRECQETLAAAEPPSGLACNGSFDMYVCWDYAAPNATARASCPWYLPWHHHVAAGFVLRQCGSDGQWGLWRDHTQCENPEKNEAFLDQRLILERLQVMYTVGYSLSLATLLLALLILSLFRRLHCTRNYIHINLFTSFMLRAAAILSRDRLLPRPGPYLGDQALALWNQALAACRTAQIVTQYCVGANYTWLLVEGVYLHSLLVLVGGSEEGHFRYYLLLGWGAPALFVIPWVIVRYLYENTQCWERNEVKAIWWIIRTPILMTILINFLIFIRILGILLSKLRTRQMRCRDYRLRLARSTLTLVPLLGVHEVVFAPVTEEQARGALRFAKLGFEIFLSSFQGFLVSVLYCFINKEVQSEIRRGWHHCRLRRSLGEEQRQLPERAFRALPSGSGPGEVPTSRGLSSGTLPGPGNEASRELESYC

Experiment [2] concerns the target human GLP-1 receptor (human, UniProt P43220 24-463).
In experiment [3] the target is human GCG receptor (human, UniProt P47871 26-477).
Sequence of human GCG receptor (P47871 26-477): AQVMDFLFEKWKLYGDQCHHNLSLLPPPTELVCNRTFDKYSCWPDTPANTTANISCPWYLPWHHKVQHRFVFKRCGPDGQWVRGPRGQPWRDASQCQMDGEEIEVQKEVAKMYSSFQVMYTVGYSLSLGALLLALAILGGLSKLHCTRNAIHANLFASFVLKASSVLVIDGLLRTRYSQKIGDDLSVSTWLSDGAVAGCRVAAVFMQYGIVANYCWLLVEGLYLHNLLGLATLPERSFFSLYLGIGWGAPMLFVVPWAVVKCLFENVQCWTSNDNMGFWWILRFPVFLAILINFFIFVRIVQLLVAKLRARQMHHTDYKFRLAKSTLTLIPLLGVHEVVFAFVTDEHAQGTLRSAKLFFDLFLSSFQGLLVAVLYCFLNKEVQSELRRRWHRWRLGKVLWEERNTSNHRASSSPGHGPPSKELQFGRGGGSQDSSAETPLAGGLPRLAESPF

Bridge positions count the residues as written; N and C are the ends. Square brackets hold non-standard residues; d marks the D form. Ends that are not written are not given here. * marks the point of attachment. Acetyl(2-(4-imidazolyl)) = O=C(Cc1c[nH]cn1)*; Aib = CC(C)(N)C(=O)O

For H[Aib]QGTFTSDKSKYLDECAAQDFVQWLLDGGPSSGAPPPS [Triple agonist of SEQ ID NO: 41], in experiment [1], the “In vitro activity compared to native peptide (%) vs GIP” value (“In vitro activity … (%) vs GIP” below) is under 0.1%. In addition, the “In vitro activity compared to native peptide (%) vs GLP-1” value (“In vitro activity … (%) vs GLP-1” below) in experiment [2] was determined as 34.3%. Further, the “In vitro activity compared to native peptide (%) vs Glucagon” value (“In vitro activity … (%) vs Glucagon” below) in experiment [3] was under 0.1%.

On to H[Aib]QGTFTSDVSSYLLGQQQKEFIAWLVKGC [Triple agonist of SEQ ID NO: 4], for which the “In vitro activity … (%) vs GIP” value in experiment [1] was under 0.1%. Further, in experiment [2], the “In vitro activity … (%) vs GLP-1” value is 8.5%. Besides, in experiment [3], the “In vitro activity … (%) vs Glucagon” value was under 0.1%.

For HGQGTFTSDCSKQLDGQAAQEFVAWLLAGGPSSGAPPPS [Triple agonist of SEQ ID NO: 44], the “In vitro activity … (%) vs GIP” value in experiment [1] is under 0.1%. Further, the “In vitro activity … (%) vs GLP-1” value in experiment [2] is 1.3%. Besides, the “In vitro activity … (%) vs Glucagon” value in experiment [3] is under 0.1%.

As for HGQGTFTSDCSKYLDEQHAQEFVAWLLAGGPSSGAPPPS [Triple agonist of SEQ ID NO: 46], the “In vitro activity … (%) vs GIP” value in experiment [1] is under 0.1%. Also, the “In vitro activity … (%) vs GLP-1” value in experiment [2] came to 1.4%. Also, in experiment [3], the “In vitro activity … (%) vs Glucagon” value was under 0.1%.

As to HGQGTFTSDCSKYMDGQAAQDFVAWLLAGGPSSGAPPPS [Triple agonist of SEQ ID NO: 45], in experiment [1], the “In vitro activity … (%) vs GIP” value was under 0.1%. In experiment [2], the “In vitro activity … (%) vs GLP-1” value worked out at 6.6%. For the same molecule, the “In vitro activity … (%) vs Glucagon” value in experiment [3] is under 0.1%.

In the case of HGQGTFTSDCSKYLDGQRAQDFVNWLLAGGPSSGAPPPS [Triple agonist of SEQ ID NO: 48], in experiment [1], the “In vitro activity … (%) vs GIP” value is under 0.1%. Further, the “In vitro activity … (%) vs GLP-1” value in experiment [2] turned out to be 1.5%. The “In vitro activity … (%) vs Glucagon” value in experiment [3] is under 0.1%.

For HGQGTFTSDCSKYLDGQRAQEFVAWLLAGGPSSGAPPPS [Triple agonist of SEQ ID NO: 47], the “In vitro activity … (%) vs GIP” value in experiment [1] was under 0.1%. In addition, the “In vitro activity … (%) vs GLP-1” value in experiment [2] turned out to be 2.4%. Also, the “In vitro activity … (%) vs Glucagon” value in experiment [3] is under 0.1%.

Regarding H[Aib]QGTFTSDYSKYLDEKRQKEFVQWLLDTC (bridge 16-20) [Triple agonist of SEQ ID NO: 52], the “In vitro activity … (%) vs GIP” value in experiment [1] was 0.3%. The “In vitro activity … (%) vs GLP-1” value in experiment [2] amounted to 44.1%. Also, the “In vitro activity … (%) vs Glucagon” value in experiment [3] worked out at 7.5%.

For {Acetyl(2-(4-imidazolyl))}-[Aib]QGTFTSDKSSYLDERAAQDFVQWLLDGGPSSGAPPPSS [Triple agonist of SEQ ID NO: 38], the “In vitro activity … (%) vs GLP-1” value in experiment [2] is 2.3%.

In the case of H[Aib]QGTFTSDYSKYLDEKRAKEFVQWLLDHHPSSGQPPPSC (bridge 16-20) [Triple agonist of SEQ ID NO: 50], the “In vitro activity … (%) vs GIP” value in experiment [1] worked out at 2.7%. In addition, the “In vitro activity … (%) vs GLP-1” value in experiment [2] was found to be 67.4%. The “In vitro activity … (%) vs Glucagon” value in experiment [3] was found to be 50.5%.

Take H[Aib]QGTFTSDVSSYLDGQAAKEFIAWLVKGC [Triple agonist of SEQ ID NO: 1]: in experiment [1], the “In vitro activity … (%) vs GIP” value is under 0.1%. For the same molecule, the “In vitro activity … (%) vs GLP-1” value in experiment [2] stood at 3.2%. The “In vitro activity … (%) vs Glucagon” value in experiment [3] was under 0.1%.

Turning to Y[Aib]QGTFTSDYSKYLDEKRAKEFVQWLLDHHPSSGQPPPSC (bridge 16-20) [Triple agonist of SEQ ID NO: 42], the “In vitro activity … (%) vs GIP” value in experiment [1] is 7.8%. Further, the “In vitro activity … (%) vs GLP-1” value in experiment [2] was 33.9%. Besides, in experiment [3], the “In vitro activity … (%) vs Glucagon” value was determined as 206%.

With H[Aib]QGTFTSDKSKYLDERACQDFVQWLLDGGPSSGAPPPS [Triple agonist of SEQ ID NO: 40], the “In vitro activity … (%) vs GIP” value in experiment [1] was under 0.1%. Besides, the “In vitro activity … (%) vs GLP-1” value in experiment [2] was 75.2%. The “In vitro activity … (%) vs Glucagon” value in experiment [3] is under 0.1%.

H[Aib]QGTFTSDYSKYLDEKRQKEFVQWLLNTC (bridge 16-20) [Triple agonist of SEQ ID NO: 51]: in experiment [1], the “In vitro activity … (%) vs GIP” value was determined as 0.1%. Also, the “In vitro activity … (%) vs GLP-1” value in experiment [2] was determined as 14.4%. The “In vitro activity … (%) vs Glucagon” value in experiment [3] turned out to be 2%.

Consider {Acetyl(2-(4-imidazolyl))}-[Aib]QGTFTSDYSICMDEIHQKDFVNWLLNTK (bridge 15-19) [Triple agonist of SEQ ID NO: 49], for which the “In vitro activity … (%) vs GIP” value in experiment [1] is 3.3%. In addition, in experiment [2], the “In vitro activity … (%) vs GLP-1” value was found to be 29.8%. Besides, in experiment [3], the “In vitro activity … (%) vs Glucagon” value is under 0.1%.

With Y[Aib]QGTFTSDYSKYLDEKRAKEFVQWLLDHHCSSGQPPPS (bridge 16-20) [Triple agonist of SEQ ID NO: 43], the “In vitro activity … (%) vs GIP” value in experiment [1] is 3.7%. For the same molecule, the “In vitro activity … (%) vs GLP-1” value in experiment [2] came to 12.6%. Further, the “In vitro activity … (%) vs Glucagon” value in experiment [3] amounted to 88.4%.

Consider H[Aib]QGTFTSDYSKYLDEKRQKEFVNWLLAQKC (bridge 16-20) [Triple agonist of SEQ ID NO: 34], for which the “In vitro activity … (%) vs GIP” value in experiment [1] worked out at 0.6%. The “In vitro activity … (%) vs GLP-1” value in experiment [2] was found to be 19.1%. The “In vitro activity … (%) vs Glucagon” value in experiment [3] was determined as 0.92%.

With H[Aib]QGTFTSDVSSYLLGQQQKEFIAWLVKGGGPSSGAPPPSC [Triple agonist of SEQ ID NO: 5], the “In vitro activity … (%) vs GIP” value in experiment [1] was under 0.1%. Also, in experiment [2], the “In vitro activity … (%) vs GLP-1” value was 42.1%. For the same molecule, the “In vitro activity … (%) vs Glucagon” value in experiment [3] is under 0.1%.

Turning to H[Aib]QGTFTSDYSKYLDGQHAQCFVAWLLAGGGPSSGAPPPS [Triple agonist of SEQ ID NO: 39], the “In vitro activity … (%) vs GIP” value in experiment [1] was under 0.1%. Also, in experiment [2], the “In vitro activity … (%) vs GLP-1” value was 13.9%. Moreover, in experiment [3], the “In vitro activity … (%) vs Glucagon” value was determined as 0.53%.

H[Aib]QGTFTSDYSKYLDECRQKEFVQWLLNGGPSSGAPPPSG (bridge 16-20) [Triple agonist of SEQ ID NO: 37]: in experiment [1], the “In vitro activity … (%) vs GIP” value stood at 2.2%. Besides, the “In vitro activity … (%) vs GLP-1” value in experiment [2] was 236%. For the same molecule, the “In vitro activity … (%) vs Glucagon” value in experiment [3] was 6.21%.

On to H[Aib]QGTFTSDYSKYLCEKRQKEFVQWLLNGGPSSGAPPPSG (bridge 16-20) [Triple agonist of SEQ ID NO: 36], for which the “In vitro activity … (%) vs GIP” value in experiment [1] is 0.2%. Moreover, the “In vitro activity … (%) vs GLP-1” value in experiment [2] was determined as 37.4%. Besides, in experiment [3], the “In vitro activity … (%) vs Glucagon” value turned out to be 0.39%.

As to H[Aib]QGTFTSDYSIAMDEIHQKDFVNWLLNTKC (bridge 16-20) [Triple agonist of SEQ ID NO: 35], the “In vitro activity … (%) vs GIP” value in experiment [1] amounted to 1.3%. Also, the “In vitro activity … (%) vs GLP-1” value in experiment [2] was determined as 7.5%. The “In vitro activity … (%) vs Glucagon” value in experiment [3] is under 0.1%.
